Assay results: article PMC3858845 (Molecular bioSystems, 2014)

Experiments:
[1] = molecular target: bfIYD (Branchiostoma floridae, UniProt C3Y0Q6); experiment: FMN occupancy of purified enzyme from A450 and A280; format: binding; details: FMN bound as isolated
[2] = molecular target: dpIYD (Daphnia pulex, UniProt E9FR69); experiment: as above; format: binding; details: FMN bound as isolated
[3] = molecular target: T1, drIYD (Danio rerio, UniProt E7FDV5); experiment: as above; format: binding; details: FMN bound as isolated
T1 sequence (E7FDV5 24-295 limits assumed): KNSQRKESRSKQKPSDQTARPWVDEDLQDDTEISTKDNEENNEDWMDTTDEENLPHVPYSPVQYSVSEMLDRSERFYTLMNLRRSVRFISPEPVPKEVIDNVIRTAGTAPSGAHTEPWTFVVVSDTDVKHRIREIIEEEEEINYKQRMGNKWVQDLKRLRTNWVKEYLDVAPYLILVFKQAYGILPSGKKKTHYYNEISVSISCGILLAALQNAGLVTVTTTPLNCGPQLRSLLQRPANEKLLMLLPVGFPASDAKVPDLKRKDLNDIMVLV

[4] = molecular target: amIYD (Apis mellifera, UniProt A0A7M7RAX7); experiment: as above; format: binding; details: FMN bound as isolated
[5] = molecular target: nvIYD (Nematostella vectensis, UniProt A7S5D9); experiment: as above; format: binding; details: FMN bound as isolated
[6] = molecular target: hmIYD (Hydra vulgaris, UniProt T2MBC4); experiment: as above; format: binding; details: FMN bound as isolated; partly purified enzyme
[7] = molecular target: hhIYD (Haliscomenobacter hydrossis, UniProt F4KU78); experiment: as above; format: binding; details: FMN bound as isolated
[8] = substrate: N[C@@H](Cc1cc(I)c(O)c(I)c1)C(=O)O; experiment: purified protein; format: biochemical, Danio rerio; details: labelled compound; excess FMN present in assay
[9] = substrate: N[C@@H](Cc1cc(I)c(O)c(I)c1)C(=O)O; experiment: purified protein; format: biochemical, Haliscomenobacter hydrossis; details: labelled compound; excess FMN present in assay
[10] = substrate: N[C@@H](Cc1cc(I)c(O)c(I)c1)C(=O)O; experiment: purified protein; format: biochemical, Nematostella vectensis; details: labelled compound; excess FMN present in assay
[11] = substrate: N[C@@H](Cc1cc(I)c(O)c(I)c1)C(=O)O; experiment: purified protein; format: biochemical, Daphnia pulex; details: labelled compound; excess FMN present in assay

Chain of hmIYD (T2MBC4 43-272): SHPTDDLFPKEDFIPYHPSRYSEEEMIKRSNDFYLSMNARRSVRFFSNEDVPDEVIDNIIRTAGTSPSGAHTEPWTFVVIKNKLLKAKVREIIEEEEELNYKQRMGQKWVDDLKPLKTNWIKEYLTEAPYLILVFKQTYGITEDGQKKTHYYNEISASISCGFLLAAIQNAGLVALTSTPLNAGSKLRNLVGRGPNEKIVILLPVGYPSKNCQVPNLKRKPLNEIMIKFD

Cc1cc2nc3c(=O)[nH]c(=O)nc-3n(C[C@H](O)[C@H](O)[C@H](O)COP(=O)(O)O)c2cc1C [FMN]
FMN occupancy [1]: 95% | FMN occupancy [2]: 95% | FMN occupancy [3]: 95% | FMN occupancy [4]: 95% | FMN occupancy [5]: 55% | FMN occupancy [6]: 59% | FMN occupancy [7]: 95%

B1: drIYD (Danio rerio) (protein)
chain: T1 sequence (E7FDV5 24-295 limits assumed)
Km [8]: 8 ± 1 µM | kcat [8]: 0.0683 ± 0.00333 s⁻¹ | kcat/Km [8]: 8500 ± 1170 M⁻¹ s⁻¹

B2: hhIYD (Haliscomenobacter hydrossis DSM 1100) (protein)
chain: MKQKPAFIPYAGAQFEPEEMLSKSAEYYQFMDHRRTVREFSNRAIPLEVIENIVMTASTAPSGAHKQPWTFVVVSDPQIKAKIRQAAEKEEFESYNGRMSNEWLEDLQPFGTDWHKPFLEIAPYLIVVFRKAYDVLPDGTQRKNYYVQESVGIACGFLLAAIHQAGLVALTHTPSPMNFLQKILQRPENERPFLLVPVGYPAEGAMVPDLQRKDKAAVMVVY
Km [9]: 6.6 ± 0.9 µM | kcat [9]: 0.09 ± 0.005 s⁻¹ | kcat/Km [9]: 13300 ± 1670 M⁻¹ s⁻¹

B3: nvIYD (Nematostella vectensis) (protein)
chain: MEVFKALFKSKEAYTVDVDPMKDSDEHDLPRDPLSIRVTGEEEVNHIPYPYFDEIPTEEEMKKKSAEFYKSMKKRRTVRKISSEPVPLEVIENIVRVAGTSPSGAHTEPWTYVVIRDPDLKKQIKEVVEEEEQLNYARRMGEKWVQDLSILKTTWSKPYIETAPYLILIFKQVYGIKPDGDKKVHYYNEISVCISCGLLLAAIQNAGLVTVTSTPMNAGPRLRVLLNRPQNEKLIMLLPVGYPAKDAEVPNLTRKPLEEIMVLK
Km [10]: 105 ± 26 µM | kcat [10]: 0.533 ± 0.0667 s⁻¹ | kcat/Km [10]: 5000 ± 1330 M⁻¹ s⁻¹

B4: dpIYD (Daphnia pulex) (protein)
chain: VKRESAIEQINEIEDDDEQSLEDQDVLPILFQYEKPSEADSIRRSEEFYRRMNQRRSVREISSDPVALEVIENIIKTGGTSPSGAHTEPWTFVVVSNLEMKQQIRQIIEAEEEINYKQRMGDVWVQDLQPVGTTWVKEYLTEAPWLILIFKQVHGFKRNGQKKIHYYNEISVSIATGFLLAAIQEAGLVTVTTTPLNCGPSIRVLLGRPVNEKLLLLLPVGYPKVGATVPDFKRKPLHDIMVHYQ
Km [11]: 7 ± 1 µM | kcat [11]: 0.293 ± 0.0133 s⁻¹ | kcat/Km [11]: 41700 ± 6670 M⁻¹ s⁻¹
